Read-outs that look alike come from different tables or passages of the source.
What was measured:
[1] = cited from earlier work
[2] = cited from earlier work; for storage time after reconstitution: reconstituted with 0.9% benzyl alcohol
[3] = Level of inclusion of guest protein/peptide in host crystals (labeled-insulin/lactose crystals dissolved in PBS and analyzed by HPLC); type: physicochemical; settings: rhodamine-labeled glucagon in α-lactose monohydrate crystals
Experimental: To investigate the potential for incorporation of a biopharmaceutical into crystals of biocompatible excipients, studies were conducted using rhodamine-labeled glandular glucagon and lactose. As in the previous studies, the rhodamine label was used to facilitate the visualization of glucagon in the host crystals. Typical crystal growth conditions involved the addition of 5 volumes of a supersaturated solution of deionized α-lactose monohydrate to 1 volume of an approximately 1.5 mg/mL (approximately 300 to 400 μmole) of rhodamine-labeled glucagon in purified water. The mixed solution was allowed to stand at room temperature in a 24-well plate.

[4] = vs. 2% in placebo; cited from earlier work

Molecule: Actimmune
- activity ([1]; interferon gamma-1b): dimeric form in solution, activity or 30 million units/mg.

Molecule: Activase
- time diluted solution can be held ([2]; 1 mg/mL solution diluted 1:1 with 0.9% NaCl or D5W, room temperature): 8 h
- effect of preservatives on the product ([2]; preserved water or addition of preservatives): precipitation
- activity ([1]; T-PA glycoprotein): 580,000 IU/mg.

Molecule: Leukine
- storage time after reconstitution ([2]; refrigerated temperatures): < 20 days
- reconstituted solution stable for ([2]; reconstituted with sterile water, refrigerated temperatures): < 6 h
- specific activity ([1]; GM-CSF): Additional Information: Specific activity is 5 × 10^7 colony forming units per mg protein. Sargramostim

Molecule: Protropin
- storage time after reconstitution ([2]; refrigerated temperatures): stored at refrigerated temperature, the reconstituted product is good for 14 days at refrigerated

Molecule: rhodamine-labeled glucagon: glandular glucagon carrying a rhodamine label to visualize it in the host crystals
- level of inclusion [3]: approximately 0.1 % (w/w)

B1: Actimmune (protein, UniProt P01579 24-161, looked up)
Interferon gamma: QDPYVKEAENLKKYFNAGHSDVADNGTLFLGILKNWKEESDRKIMQSQIVSFYFKLFKNFKDDQSIQKSVETIKEDMNVKFFNSNKKKRDDFEKLTNYSVTDLNVQRKAIHELIQVMAELSPAAKTGKRKRSQMLFRG
modifications: interferon gamma-1b
- injection site irritation [4]: Additional Information: 14% injection site irritation vs. 2% in placebo. Cost $140 for 50 μg.
